{"source": "patent US20220152100A1", "about": "“METHODS FOR CONTROLLED ACTIVATION OR ELIMINATION OF THERAPEUTIC CELLS” (Bellicum Pharmaceuticals, Inc., priority 2014, published 2022)"}
{"test_system": "HEK293T/16 cells", "test": "SEAP-based surrogate killing assay of iCasp9 mutants", "assay_type": "cell-based, human", "conditions": "in words, versus wild type", "method": "Early passage HEK293T/16 cells (ATCC, Manassas, Va.) were maintained in IMDM, GlutaMAX™ (Life Technologies, Carlsbad, Calif.) supplemented with 10% FBS, 100 U/mL penicillin, and 100 […] until transfection in a humidified, 37° C., 5% CO2/95% air atmosphere. Cells in logarithmic-phase growth were transiently transfected with 800 ng to 2 μg of expression plasmid encoding iCasp9 mutants and 500 ng of an expression plasmid encoding SRα promoter driven SEAP per million cells in 15-mL conical tubes. […] GeneJammer® Transfection Reagent at a ratio of 3 μl per ug of plasmid DNA was used to transiently transfect HEK293T/16 cells in the absence of antibiotics. 100 μl or 2 mL of the transfection mixture was added to each well in 96-well or 6-well plate, respectively.\nBriefly, after 65° C. heat denaturation for 45 minutes to reduce background caused by endogenous (and serum-derived) alkaline phosphatases that are sensitive to heat, 5 μl of supernatants was added to 95 μl of PBS and added to 100 μl of substrate buffer, containing 1 μl of 100 mM 4-methylumbelliferyl phosphate (4-MUP; Sigma, St. Louis, Mo.) re-suspended in 2 M diethanolamine. Hydrolysis of 4-MUP by SEAP produces a fluorescent […] with excitation/emission (355/460 nm), which can be easily measured. Assays were performed in black opaque 96-well plates to minimize fluorescence leakage between wells. […] of the mixture was seeded onto each well of a 96-well plate. […] For the assay, 4-methylumbelliferyl phosphate substrate was hydrolyzed by SEAP to 4-methylumbelliferon, a metabolite that can be excited with 364 nm and detected with an emission filter of 448 nm. Since SEAP is used as a marker for cell viability, reduced SEAP reading corresponds with increased iCaspase-9 activities."}
{"molecule": "D327G: chimeric modified Caspase-9 polypeptide (protein) VDGFGDVGALESLRGNADLAYILSMEPCGHCLIINNVNFCRESGLRTRTGSNIDCEKLRRRFSSLHFMVEVKGDLTAKKMVLALLELARQDHGALDCCVVVILSHGCQASHLQFPGAVYGTDGCPVSVEKIVNIFNGTSCPSLGGKPKLFFIQACGGEQKDHGFEVASTSPEDESPGSNPEPDATPFQEGLRTFGQLDAISSLPTPSDIFVSYSTFPGFVSWRDPKSGSWYVETLDDIFEQWAHSEDLQSLLLRVANAVSVKGIYKQMPGCFNFLRKKLFFKTSASRA", "effect on basal / catalytic activity": "did not lower basal activity"}
{"molecule": "D327K: chimeric modified Caspase-9 polypeptide (protein) VDGFGDVGALESLRGNADLAYILSMEPCGHCLIINNVNFCRESGLRTRTGSNIDCEKLRRRFSSLHFMVEVKGDLTAKKMVLALLELARQDHGALDCCVVVILSHGCQASHLQFPGAVYGTDGCPVSVEKIVNIFNGTSCPSLGGKPKLFFIQACGGEQKDHGFEVASTSPEDESPGSNPEPDATPFQEGLRTFKQLDAISSLPTPSDIFVSYSTFPGFVSWRDPKSGSWYVETLDDIFEQWAHSEDLQSLLLRVANAVSVKGIYKQMPGCFNFLRKKLFFKTSASRA", "effect on basal / catalytic activity": "did not lower basal activity"}
{"molecule": "L329K: chimeric modified Caspase-9 polypeptide (protein) VDGFGDVGALESLRGNADLAYILSMEPCGHCLIINNVNFCRESGLRTRTGSNIDCEKLRRRFSSLHFMVEVKGDLTAKKMVLALLELARQDHGALDCCVVVILSHGCQASHLQFPGAVYGTDGCPVSVEKIVNIFNGTSCPSLGGKPKLFFIQACGGEQKDHGFEVASTSPEDESPGSNPEPDATPFQEGLRTFDQKDAISSLPTPSDIFVSYSTFPGFVSWRDPKSGSWYVETLDDIFEQWAHSEDLQSLLLRVANAVSVKGIYKQMPGCFNFLRKKLFFKTSASRA", "effect on basal / catalytic activity": "did not lower basal activity"}
{"molecule": "F326K: chimeric modified Caspase-9 polypeptide (protein) VDGFGDVGALESLRGNADLAYILSMEPCGHCLIINNVNFCRESGLRTRTGSNIDCEKLRRRFSSLHFMVEVKGDLTAKKMVLALLELARQDHGALDCCVVVILSHGCQASHLQFPGAVYGTDGCPVSVEKIVNIFNGTSCPSLGGKPKLFFIQACGGEQKDHGFEVASTSPEDESPGSNPEPDATPFQEGLRTKDQLDAISSLPTPSDIFVSYSTFPGFVSWRDPKSGSWYVETLDDIFEQWAHSEDLQSLLLRVANAVSVKGIYKQMPGCFNFLRKKLFFKTSASRA", "effect on basal / catalytic activity": "did not lower basal activity"}
{"molecule": "Q328K: chimeric modified Caspase-9 polypeptide (protein) VDGFGDVGALESLRGNADLAYILSMEPCGHCLIINNVNFCRESGLRTRTGSNIDCEKLRRRFSSLHFMVEVKGDLTAKKMVLALLELARQDHGALDCCVVVILSHGCQASHLQFPGAVYGTDGCPVSVEKIVNIFNGTSCPSLGGKPKLFFIQACGGEQKDHGFEVASTSPEDESPGSNPEPDATPFQEGLRTFDKLDAISSLPTPSDIFVSYSTFPGFVSWRDPKSGSWYVETLDDIFEQWAHSEDLQSLLLRVANAVSVKGIYKQMPGCFNFLRKKLFFKTSASRA", "effect on basal / catalytic activity": "did not lower basal activity"}
{"molecule": "D327R: chimeric modified Caspase-9 polypeptide (protein) VDGFGDVGALESLRGNADLAYILSMEPCGHCLIINNVNFCRESGLRTRTGSNIDCEKLRRRFSSLHFMVEVKGDLTAKKMVLALLELARQDHGALDCCVVVILSHGCQASHLQFPGAVYGTDGCPVSVEKIVNIFNGTSCPSLGGKPKLFFIQACGGEQKDHGFEVASTSPEDESPGSNPEPDATPFQEGLRTFRQLDAISSLPTPSDIFVSYSTFPGFVSWRDPKSGSWYVETLDDIFEQWAHSEDLQSLLLRVANAVSVKGIYKQMPGCFNFLRKKLFFKTSASRA", "effect on basal / catalytic activity": "did not lower basal activity"}
{"molecule": "L329G: chimeric modified Caspase-9 polypeptide (protein) VDGFGDVGALESLRGNADLAYILSMEPCGHCLIINNVNFCRESGLRTRTGSNIDCEKLRRRFSSLHFMVEVKGDLTAKKMVLALLELARQDHGALDCCVVVILSHGCQASHLQFPGAVYGTDGCPVSVEKIVNIFNGTSCPSLGGKPKLFFIQACGGEQKDHGFEVASTSPEDESPGSNPEPDATPFQEGLRTFDQGDAISSLPTPSDIFVSYSTFPGFVSWRDPKSGSWYVETLDDIFEQWAHSEDLQSLLLRVANAVSVKGIYKQMPGCFNFLRKKLFFKTSASRA", "effect on basal / catalytic activity": "did not lower basal activity"}
{"molecule": "Q328R: chimeric modified Caspase-9 polypeptide (protein) VDGFGDVGALESLRGNADLAYILSMEPCGHCLIINNVNFCRESGLRTRTGSNIDCEKLRRRFSSLHFMVEVKGDLTAKKMVLALLELARQDHGALDCCVVVILSHGCQASHLQFPGAVYGTDGCPVSVEKIVNIFNGTSCPSLGGKPKLFFIQACGGEQKDHGFEVASTSPEDESPGSNPEPDATPFQEGLRTFDRLDAISSLPTPSDIFVSYSTFPGFVSWRDPKSGSWYVETLDDIFEQWAHSEDLQSLLLRVANAVSVKGIYKQMPGCFNFLRKKLFFKTSASRA", "effect on basal / catalytic activity": "did not lower basal activity"}
{"molecule": "G402Y: chimeric modified Caspase-9 polypeptide (protein, UniProt P55211 1-416, looked up, variant G402Y, chimeric, fused to dimerization domain, chimeric modified Caspase-9 polypeptide) MDEADRRLLRRCRLRLVEELQVDQLWDALLSRELFRPHMIEDIQRAGSGSRRDQARQLIIDLETRGSQALPLFISCLEDTGQDMLASFLRTNRQAAKLSKPTLENLTPVVLRPEIRKPEVLRPETPRPVDIGSGGFGDVGALESLRGNADLAYILSMEPCGHCLIINNVNFCRESGLRTRTGSNIDCEKLRRRFSSLHFMVEVKGDLTAKKMVLALLELAQQDHGALDCCVVVILSHGCQASHLQFPGAVYGTDGCPVSVEKIVNIFNGTSCPSLGGKPKLFFIQACGGEQKDHGFEVASTSPEDESPGSNPEPDATPFQEGLRTFDQLDAISSLPTPSDIFVSYSTFPGFVSWRDPKSGSWYVETLDDIFEQWAHSEDLQSLLLRVANAVSVKGIYKQMPYCFNFLRKKLFFKTS", "effect on basal / catalytic activity": "catalytically inactive"}
{"molecule": "C403P: chimeric modified Caspase-9 polypeptide (protein, UniProt P55211 1-416, looked up, variant C403P, chimeric, fused to dimerization domain, chimeric modified Caspase-9 polypeptide) MDEADRRLLRRCRLRLVEELQVDQLWDALLSRELFRPHMIEDIQRAGSGSRRDQARQLIIDLETRGSQALPLFISCLEDTGQDMLASFLRTNRQAAKLSKPTLENLTPVVLRPEIRKPEVLRPETPRPVDIGSGGFGDVGALESLRGNADLAYILSMEPCGHCLIINNVNFCRESGLRTRTGSNIDCEKLRRRFSSLHFMVEVKGDLTAKKMVLALLELAQQDHGALDCCVVVILSHGCQASHLQFPGAVYGTDGCPVSVEKIVNIFNGTSCPSLGGKPKLFFIQACGGEQKDHGFEVASTSPEDESPGSNPEPDATPFQEGLRTFDQLDAISSLPTPSDIFVSYSTFPGFVSWRDPKSGSWYVETLDDIFEQWAHSEDLQSLLLRVANAVSVKGIYKQMPGPFNFLRKKLFFKTS", "effect on basal / catalytic activity": "catalytically inactive"}
{"molecule": "^402GCFNF^406ISAQT (Casp-10): Caspase-9 with dimerization residues 402-406 replaced by those of Caspase-10 (protein, UniProt P55211 1-416, looked up, variant G402I C403S F404A N405Q F406T, Caspase-10 dimerization residues swapped in) MDEADRRLLRRCRLRLVEELQVDQLWDALLSRELFRPHMIEDIQRAGSGSRRDQARQLIIDLETRGSQALPLFISCLEDTGQDMLASFLRTNRQAAKLSKPTLENLTPVVLRPEIRKPEVLRPETPRPVDIGSGGFGDVGALESLRGNADLAYILSMEPCGHCLIINNVNFCRESGLRTRTGSNIDCEKLRRRFSSLHFMVEVKGDLTAKKMVLALLELAQQDHGALDCCVVVILSHGCQASHLQFPGAVYGTDGCPVSVEKIVNIFNGTSCPSLGGKPKLFFIQACGGEQKDHGFEVASTSPEDESPGSNPEPDATPFQEGLRTFDQLDAISSLPTPSDIFVSYSTFPGFVSWRDPKSGSWYVETLDDIFEQWAHSEDLQSLLLRVANAVSVKGIYKQMPISAQTLRKKLFFKTS", "effect on basal / catalytic activity": "reduced basal activity but higher IC50"}
{"molecule": "^402GCFNF^406AAAAA: Caspase-9 with dimerization residues 402-406 replaced by AAAAA (protein, UniProt P55211 1-416, looked up, variant G402A C403A F404A N405A F406A) MDEADRRLLRRCRLRLVEELQVDQLWDALLSRELFRPHMIEDIQRAGSGSRRDQARQLIIDLETRGSQALPLFISCLEDTGQDMLASFLRTNRQAAKLSKPTLENLTPVVLRPEIRKPEVLRPETPRPVDIGSGGFGDVGALESLRGNADLAYILSMEPCGHCLIINNVNFCRESGLRTRTGSNIDCEKLRRRFSSLHFMVEVKGDLTAKKMVLALLELAQQDHGALDCCVVVILSHGCQASHLQFPGAVYGTDGCPVSVEKIVNIFNGTSCPSLGGKPKLFFIQACGGEQKDHGFEVASTSPEDESPGSNPEPDATPFQEGLRTFDQLDAISSLPTPSDIFVSYSTFPGFVSWRDPKSGSWYVETLDDIFEQWAHSEDLQSLLLRVANAVSVKGIYKQMPAAAAALRKKLFFKTS", "effect on basal / catalytic activity": "catalytically inactive"}
